Experimental data from US20240035012A1 (WESTLAKE UNIVERSITY, published 2024).
Values joined by “and” are separate entries in the source; they are usually repeats but may differ in a detail not shown here. Equal entries are not always repeated.

Target: SARS-CoV-2 spike protein (SARS-CoV-2-S) (SARS-CoV-2, UniProt P0DTC2 14-1273)
Test: cell-based or functional assay

Binder | IC50, inhibition of SARS-CoV-2 pseudotyped virus (luciferase), Caco-2 cells
ACE2 M2-AP15-foldon (receptor) QSTIEEQAKYFLDKFNHEAEDLFYQSSLASWNYNTNITEENVQNMNNAGDKWSAFLKEQSTYAQMYPLQEIQNLTVKLQLQALQQNGSSVLSEDKSKRLNTILNTMSTIYSTGKVCNPDNPQECLLLEPGLNEIMANSLDYNERLWAWESWRSEVGKQLRPLYEEYVVLKNEMARANHYEDYGDYWRGDYEVNGVDGYDYSRGQLIEDVEHTFEEIKPLYEHLHAYVRAKLMNAYPSYISPIGCLPAHLLGDMWGRFWTNLYSLTVPFGQKPNIDVTDAMVDQAWDAQRIFKEAEKFFVSVGLPNMTQGFWEYSMLTDPGNVQKAVCHPTAWDLGKGDFRILMCTKVTMDDFLTAHHEMGHIQYDMAYAAQPFLLRNGANEGFHEAVGEIMSLSAATPKHLKSIGLLSPDFQEDNETEINFLLKQALTIVGTLPFTYMLEKWRWMVFKGEIPKDQWMKKWWEMKREIVGVVEPVPHDETYCDPASLFHVSNDYSFIRYYTRTLYQFQFQEALCQAAKHEGPLHKCDISNSTEAGQKLFNMLRLGKSEPWTLALENVVGAKNMNVRPLLNYFEPLFTWLKDQNKNSFVGWSTDWSPYADGSAPAPAPAPAPAPAPAPAPAPAPAPAPAPAPGSGYIPEAPRDGQAYVRKDGEWVLLSTFL | 0.071 µg/ml and 0.177 nM
ACE2 M1-AP15-foldon (receptor) QSTIEEQAKTFLDFFNIQAEDLFYQSSLASWNYNTNITEENVQNMNNAGDKWSAFLKEQSTLAQMYPLQEIQNLTVKLQLQALQQNGSSVLSEDKSKRLNTILNTMSTIYSTGKVCNPDNPQECLLLEPGLNEIMANSLDYNERLWAWESWRSEVGKQLRPLYEEYVVLKNEMARANHYEDYGDYWRGDYEVNGVDGYDYSRGQLIEDVEHTFEEIKPLYEHLHAYVRAKLMNAYPSYISPIGCLPAHLLGDMWGRFWTNLYSLTVPFGQKPNIDVTDAMVDQAWDAQRIFKEAEKFFVSVGLPNMTQGFWENSMLTDPGNVQKAVCHPTAWDLGKGDFRILMCTKVTMDDFLTAHHEMGHIQYDMAYAAQPFLLRNGANEGFHEAVGEIMSLSAATPKHLKSIGLLSPDFQEDNETEINFLLKQALTIVGTLPFTYMLEKWRWMVFKGEIPKDQWMKKWWEMKREIVGVVEPVPHDETYCDPASLFHVSNDYSFIRYYTRTLYQFQFQEALCQAAKHEGPLHKCDISNSTEAGQKLFNMLRLGKSEPWTLALENVVGAKNMNVRPLLNYFEPLFTWLKDQNKNSFVGWSTDWSPYADGSAPAPAPAPAPAPAPAPAPAPAPAPAPAPAPGSGYIPEAPRDGQAYVRKDGEWVLLSTFL | 0.202 µg/ml and 0.505 nM
ACE2 M4-AP15-foldon (receptor) QSTIEEQAKYFLDFFNIQAEDLFYQSSLASWNYNTNITEENVQNMNNAGDKWSAFLKEQSTYAQMYPLQEIQNLTVKLQLQALQQNGSSVLSEDKSKRLNTILNTMSTIYSTGKVCNPDNPQECLLLEPGLNEIMANSLDYNERLWAWESWRSEVGKQLRPLYEEYVVLKNEMARANHYEDYGDYWRGDYEVNGVDGYDYSRGQLIEDVEHTFEEIKPLYEHLHAYVRAKLMNAYPSYISPIGCLPAHLLGDMWGRFWTNLYSLTVPFGQKPNIDVTDAMVDQAWDAQRIFKEAEKFFVSVGLPNMTQGFWEYSMLTDPGNVQKAVCHPTAWDLGKGDFRILMCTKVTMDDFLTAHHEMGHIQYDMAYAAQPFLLRNGANEGFHEAVGEIMSLSAATPKHLKSIGLLSPDFQEDNETEINFLLKQALTIVGTLPFTYMLEKWRWMVFKGEIPKDQWMKKWWEMKREIVGVVEPVPHDETYCDPASLFHVSNDYSFIRYYTRTLYQFQFQEALCQAAKHEGPLHKCDISNSTEAGQKLFNMLRLGKSEPWTLALENVVGAKNMNVRPLLNYFEPLFTWLKDQNKNSFVGWSTDWSPYADGSAPAPAPAPAPAPAPAPAPAPAPAPAPAPAPGSGYIPEAPRDGQAYVRKDGEWVLLSTFL | 0.071 µg/ml and 0.177 nM
ACE2 M5-AP15-foldon (receptor) QSTIEEQAKYFLDKFNAEAEDLFYQSSLASWNYNTNITEENVQNMNNAGDKWSAFLKEQSTYAQMYPLQEIQNLTVKLQLQALQQNGSSVLSEDKSKRLNTILNTMSTIYSTGKVCNPDNPQECLLLEPGLNEIMANSLDYNERLWAWESWRSEVGKQLRPLYEEYVVLKNEMARANHYEDYGDYWRGDYEVNGVDGYDYSRGQLIEDVEHTFEEIKPLYEHLHAYVRAKLMNAYPSYISPIGCLPAHLLGDMWGRFWTNLYSLTVPFGQKPNIDVTDAMVDQAWDAQRIFKEAEKFFVSVGLPNMTQGFWEYSMLTDPGNVQKAVCHPTAWDLGKGDFRILMCTKVTMDDFLTAHHEMGHIQYDMAYAAQPFLLRNGANEGFHEAVGEIMSLSAATPKHLKSIGLLSPDFQEDNETEINFLLKQALTIVGTLPFTYMLEKWRWMVFKGEIPKDQWMKKWWEMKREIVGVVEPVPHDETYCDPASLFHVSNDYSFIRYYTRTLYQFQFQEALCQAAKHEGPLHKCDISNSTEAGQKLFNMLRLGKSEPWTLALENVVGAKNMNVRPLLNYFEPLFTWLKDQNKNSFVGWSTDWSPYADGSAPAPAPAPAPAPAPAPAPAPAPAPAPAPAPGSGYIPEAPRDGQAYVRKDGEWVLLSTFL | 0.052 µg/ml and 0.13 nM
